The text below walks through data of US12709641B2, “Tau binding compounds” (VOYAGER THERAPEUTICS, INC., dated 2026).

First the molecules themselves.
B1: V2001 (antibody, V domains shown)
VH: DVQLVESGGGLVQPGGSRKLSCAASGFIFSSFGMHWVRQAPEKGLEWVAYISSGSATIYYADTVKGRFTISRDNPKNTLFLQMTSLRSEDTAMYYCARKRGSGNYVSAMDFWGQGTSVTVSS
VL: DVLMTQTPLSLPVSLGDQASISCRSGQSIVHSNGNTYLEWYLQKPGQSPKLLIYKVSNRFSGVPDRFSGSGSGTDFTLKISRVEAEDLGVYYCFQGSHVPWTFGGGTKLEIK
B2: V0043 (antibody, V domains shown)
VH: DVQLQESGPGLVKPSQSLSLTCSVSGYSITTNYFWNWIRLFPGNKLEWMGYISYDGSNVYNPSLKNRISITRDTSKNQFFLKLNSLTTEDTATYYCARGPPSAYWGQGTLVTVSA
VL: SIVMTQSPKFLPVSAGDRVTMTCKASQSVGNNVAWYQQKPGQSPKLLIYYASNRYTGVPDRFTGSGSGTDFTLTISSVQVEDLVVYFCQQHYSSPLTFGAGTKLELK
B3: V0042 (antibody, V domains shown)
VH: DVQLQESGPGLVKPSQSLSLTCSVTGYSITTNYYWNWIRQFPGNKLEWMGYITYDGIKTYNPSLNNRISITRDTSKNQFFLKLNSVTTEDTATYYCARGPGLDYWGQGTTLTVSS
VL: B2 VL with S7T, G64A, L73F, V84A, L96Y, A100S, K103N, L106I
B4: V0045 (antibody, V domains shown)
VH: DVQLQESGPGLVKPSQSLSLTCSVTGYSITTNYYWNWIRQFPGNKLEWMGYISYDGSSNYNPSLKNRISITRDTSKNQFFLNLNSVTTEDTATYYCARDLLGYWGQGTTLTVSS
VL: B2 VL with S7T, V29L, L73F, V84A, L96R, A100G, L106I, K107R
B5: V0006 (antibody, V domains shown)
VH: QVQLKESGPGLVAPSQSLSITCTVSGFSLTSYAISWVRQPPGKSLEWLGVIWTGGGSKYNSALKSRLSISKDNSKSQVFLKMNSLQTDDTARYYCVRNYDYYRYEGFDYWGQGTLVTVSA
VL: DIKMTQSPSSLSASLGEGVSLTCRASQDIGSSLHWLQQKPDGTIKRLIYGTSTLDSDVPKRFSGSRSGSDYSLTISSLESEDFVDYFCLQYATSPPTFGGGTKLEIK
B6: V0036 (antibody, V domains shown)
VH: QVTLKESGPGILQPSQTLNLTCSFSGFSLSTSGMGVSWIRQPSGKGLEWLAHIYWDDDKRYNPSLKSRLTISKDTSRNQVFLKITSVDTADTATYYCVRRSRRGNYDYWGQGTTLTVSS
VL: not shown
B7: V1005 (antibody, V domains shown)
VH: QVTLKESGPGKLQPSQTLSLTCSFSGFSLSTSGMGVSWIRQPSGKGLEWLAHIYWDDDKRYNPSLKSRLTISKDTSRNQVFLKITSVDTADTATYYCARGWLRRKDYSAMDYWGQGTSVTVSS
VL: NIVMTQSPKSMSMSVGERVTLSCKASEHVGPYVSWYQHKAEQSPKLLIYGASNRYTGVPDRFTGSGSATDFTLIISSVQAEDLADYHCGQTYSYPLTFGAGTKLELK
B8: V0001 (antibody, V domains shown)
VH: EVQLVESGGGLVQPKGSLKLSCAASGFTFNTYAMYWVRQAPGKGLEWVARIRSKSSNYATYYADSVKDRFTISRDDSQSKLYLQMNNLKTEDTAMYYCVREGLWYYFDYWGQGTTLTVSS
VL: DIQMTQITSSLSASLGDRVTISCRASQDISNYLNWYQQKPDGTVKLLIYSTSRLHSGVPSRFSGSGSGTDYSLTISNLEPEDIATYYCQQYSKLLPTFGSGTKLEIK
B9: V0008 (antibody, V domains shown)
VH: QVQLKESGPGLVAPSQSLSITCTVSGFSLTTYAISWVRQPPGKGLEWLGVIWTGGGTDFNSALKSRLSISKDNSKSQVFLKMISLQTNDTARYYCARKGGSYYSTTYVGLYAMDYWGQGTSVTVSS
VL: DIQMTQTTSSLSASLGDRVTISCRASQDISNYLNWYQQKPAGTVKLLIYYTSRLHSGVPSRFSGSGSGTDYSLTISNLEQEDVATYFCQQGNTLPWTFGGGSKLEIK
B10: V0049 (antibody, V domains shown)
VH: QVTLKESGPGILQSSQTLSLTCSFSGFSLSTSGMGVSWIRQPSGKGLEWLAHIYWDDDKRYNPSLKSRLKISKDTSRNQVFLKITSVDTADTATYYCARRGYYSNGNYFDYWGQGTTLTVSS
VL: QIVLTQSPTTMAASPGEKITITCSASSSISSTYLHWYQQKPGFSPKLLIYRTSNLASGVPARFSGSGSGTSYSLTIGTMEAEDVATYYCQQGSSIPRYTFGGGTKLEIK
B11: V0007 (antibody, V domains shown)
VH: EVQLVESGGDLVKPGGSLKLSCAASGFTFSSYGLSWVRQTPDKRLEWVATISSGGDYTYYPDSVKGRFTISRDNAKNILYLHMSSLKSEDTAMYYCAREDGYYVGTMDYWGQGTSVTVSS
VL: DIQMTQSPSSLSASLGERVSLTCRASQDIGSSLNWLQQEPDGTFKRLIYATSSLDSGVPKRFSGSRSGSDYSLTISSLESEDFVDYYCLQYDSLPLTFGAGTKLELK
B12: V0003 (antibody, V domains shown)
VH: QVQLQQPGTELVKPGASVKLSCKASGYTFTKNWLHWVKQRPGQGLEWIGYINPSNGATNYNERFKSKASLTVDKSSTTAYMQLSSLTSEDSAVYYCARSGGWLLPYYAMDYWGHGTSVTVSS
VL: EIVLIQSPALMAASPGEKVTITCSVSSSISSSNLHWYQQQSGTSPKPWILATSNLASGVPVRFSGSGSGTSYSLTISSMEAEDAATYYCQQWSSYPFTFGTGTKLEIK
B13: V1003 (antibody, V domains shown)
VH: EVKLVESGGGLVKPGGSLKLSCAASGFTFSSYAMSWVRQIPEKRLEWVAAINSNGGSTYYPDTVKDRFTISRDNAKNTLYLQMSSLRSEDTALYYCVRQGWDAWFAYWGQGTLVAVSA
VL: DIKMTQSPSSMYASLGERVTITCKASQDINSYLSWFQQKPGKSPKTLIYRANRLVDGVPSRFSGSGSGQDYSLTISSLEYEDMGIYYCLQYDEFPLTFGAGTKLELK
B14: V1004 (antibody, V domains shown)
VH: B13 VH with K3Q, I40T, T58I, S84I, V97A, W101G, D102S, A103S, A106V, A115T
VL: B13 VL with T5I, S77R, M83V, I85L, L89Q
B15: V1001 (antibody, V domains shown)
VH: EVQLVESGGGLVKPGGSLKLSCAASGFTFSSYAMSWVRQTPEKRLEWVAAINSNGGRTYYPDTVKDRFTISRDNAKNTLYLQMSSLRSEDTALYYCARQGHSNYYEAWFAYWGQGTLVTVSA
VL: B13 VL with V19L, T20S, S34N, Y80D, K107R
B16: V0025 (antibody, V domains shown)
VH: QVQLQQPGTELVKPGASVKLSCKASGFTFTRFWMHWVKQRPGQGLEWIGNINPNNGETNYNEKFKIKAALTVDKSSTTAYMQLSSLTSEDSAVYSCARGTGTGAMDYWGQGTSVTVSS
VL: DVVMTQTPLSLPVSLGDQASISCRSSQSLVHSTGNTYLYWYLQKPGQSPKLLIYRVSTRFSGVPDRFSGSGSGTDFTLKINRVEAEDLGVYFCFQGTHVPRTFGGGTKLEIK

Residue numbers refer to the chain shown, from its start.

The target in the assay is enriched paired helical filament tau protein (ePHF) (human, phosphorylated residues of pathological tau, sites not stated). The assay can be described thus: direct ELISA. As for the experimental part:
Variable domain nucleic acid sequences from antibodies obtained from immunizations described above were used to prepare recombinant mouse IgG antibodies. These candidate antibodies were analyzed for binding to ePHF and specificity for ePHF over wild type tau by direct ELISA.
For direct ePHF and wildtype tau ELISA, plates were first coated with ePHF or wild type tau. Antigen solutions were prepared in PBS and 50 μL were pipetted into each well. Plates were covered and incubated for one hour at 37° C. or overnight at 4° C. Plates were then washed and blocked by addition of 150 μl of blocking buffer to each well and incubated one hour at room temperature. Plates were then washed before addition of serially diluted candidate antibody samples prepared in blocking buffer. Detection of candidate antibody binding was carried out by washing plates and adding a solution of enzyme-labeled secondary antibody in blocking buffer to each well. Secondary antibody binding was detected by addition of substrate and spectrophotometric analysis of resulting reaction product.
For orientation: An ELISA detects its analyte on a solid surface through an enzyme-linked reagent.
Usually EC50 stands for the concentration giving half of the maximal effect. For the molecule B1, the EC50 came out at 0.237 nM. In the case of B2, it took 0.581 nM to reach a half-maximal effect (EC50). Molecule B3 displayed an EC50 of 0.869 nM.

In the case of B4, the EC50 was 0.618 nM. Turning to B5, the response was half-maximal at 0.861 nM (EC50).

The molecule B6 yielded an EC50 of 6.43 nM.

Consider B7, for which the 50% effective concentration (EC50) is 0.48 nM. B8 returned an EC50 of 0.126 nM.

The molecule B9 registered a concentration giving a half-maximal response (EC50) of 1.54 nM. Under B10 stands 0.053 nM; under B11, 0.74 nM. The result for B12 reads 2.83 nM; that for B13, 0.234 nM; that for B14, 0.069 nM.

Take B15: the response was half-maximal at 0.401 nM (EC50).

B16 gave an EC50 of 0.098 nM.
